Target: Mos1 transposase (T216A mutant) (Drosophila mauritiana)
Experiment: crystal structure; Mos1 IRL paired-end complex: full-length transposase mixed with duplex IRL DNA at 1:1.5 protein:DNA in 25 mM Tris pH 7.5, 250 mM KCl, 1 mM DTT; crystals grown at 17 °C; 3.1 Å

stoichiometry N: 2
Substance: Mos1 transposase (T216A mutant) (enzyme)
